For 19 molecules, indel frequency results are on record in article PMC9433092, “Closely related type II-C Cas9 orthologs recognize diverse PAMs”.

This series has as its target T1, Nsp2Cas9 (Neisseria sp. WF04, UniProt A0A4Y9GBC9).
T1 sequence: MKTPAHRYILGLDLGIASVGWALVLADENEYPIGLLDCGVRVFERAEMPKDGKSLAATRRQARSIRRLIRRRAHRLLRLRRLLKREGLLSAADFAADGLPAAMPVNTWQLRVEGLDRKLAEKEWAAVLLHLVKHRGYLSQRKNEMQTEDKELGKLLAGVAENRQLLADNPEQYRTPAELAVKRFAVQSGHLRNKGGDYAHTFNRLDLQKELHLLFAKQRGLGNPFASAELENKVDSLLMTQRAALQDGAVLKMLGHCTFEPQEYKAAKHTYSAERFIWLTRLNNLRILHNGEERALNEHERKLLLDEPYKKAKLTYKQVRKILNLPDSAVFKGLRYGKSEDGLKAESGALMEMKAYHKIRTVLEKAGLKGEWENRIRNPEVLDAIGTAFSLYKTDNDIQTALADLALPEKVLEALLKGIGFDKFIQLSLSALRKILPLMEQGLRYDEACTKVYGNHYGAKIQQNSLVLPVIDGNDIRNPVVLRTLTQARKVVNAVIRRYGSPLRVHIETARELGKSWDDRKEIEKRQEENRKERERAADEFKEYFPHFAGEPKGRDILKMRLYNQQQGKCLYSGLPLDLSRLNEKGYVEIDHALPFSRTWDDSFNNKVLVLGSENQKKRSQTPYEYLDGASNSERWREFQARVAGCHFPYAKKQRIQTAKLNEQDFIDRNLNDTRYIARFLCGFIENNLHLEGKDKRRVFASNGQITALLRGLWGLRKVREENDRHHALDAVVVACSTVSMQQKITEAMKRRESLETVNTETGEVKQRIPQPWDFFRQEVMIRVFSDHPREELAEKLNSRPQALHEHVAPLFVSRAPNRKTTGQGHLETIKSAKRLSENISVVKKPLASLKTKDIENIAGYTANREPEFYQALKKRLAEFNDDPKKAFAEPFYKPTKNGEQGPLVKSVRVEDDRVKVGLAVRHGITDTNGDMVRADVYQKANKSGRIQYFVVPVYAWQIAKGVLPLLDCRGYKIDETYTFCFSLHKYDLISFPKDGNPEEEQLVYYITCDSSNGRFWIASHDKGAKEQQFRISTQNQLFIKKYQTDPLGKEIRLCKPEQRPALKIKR
The series is described as follows: HEK293T cells. Conditions: tags: NLS and HA tags, kept.

B1: VEGFA V36 (mixed)
RNA: GAGGAAACGACCUGGGACCACCUGUUGUAGCUCCCUUUCUCAUUUCGGAAACGAAAUGAGAACCGUUGCUACAAUAAGGCCGUCUGAAAAGAUGUGCCGCAACGCUCUGCCCCUUAAAGCUUCUGCUUUAAGGGGCAUCGUUUAUUUUUUU
DNA 1: AGGAAACGACCTGGGACCACCTGTTCCCAA
DNA 2: TTGGGAACAGGTGGTCCCAGGTCGTTTCCT
On to B1, for which the indel frequency is 14.6 % indels.

B2: AAVS1 A4 (mixed)
RNA: GCUCUGACCUGCAUUCUCUCCCCGUUGUAGCUCCCUUUCUCAUUUCGGAAACGAAAUGAGAACCGUUGCUACAAUAAGGCCGUCUGAAAAGAUGUGCCGCAACGCUCUGCCCCUUAAAGCUUCUGCUUUAAGGGGCAUCGUUUAUUUUUUU
DNA 1: CTCTGACCTGCATTCTCTCCCCTGGGCC
DNA 2: GGCCCAGGGGAGAGAATGCAGGTCAGAG
B2 displayed an indel frequency of 6.61 % indels.

B3: AAVS1 A59 (mixed)
RNA: GCUGGGACUUGGCCAGACACUGGUUGUAGCUCCCUUUCUCAUUUCGGAAACGAAAUGAGAACCGUUGCUACAAUAAGGCCGUCUGAAAAGAUGUGCCGCAACGCUCUGCCCCUUAAAGCUUCUGCUUUAAGGGGCAUCGUUUAUUUUUUU
DNA 1: GCTGGGACTTGGCCAGACACTGAGGTCCAG
DNA 2: CTGGACCTCAGTGTCTGGCCAAGTCCCAGC
B3 showed an indel frequency of 16.7 % indels.

B4: VEGFA V21 (mixed)
RNA: GUCUCGAGGUAGCCCCAGCCCGGGUUGUAGCUCCCUUUCUCAUUUCGGAAACGAAAUGAGAACCGUUGCUACAAUAAGGCCGUCUGAAAAGAUGUGCCGCAACGCUCUGCCCCUUAAAGCUUCUGCUUUAAGGGGCAUCGUUUAUUUUUUU
DNA 1: TCTCGAGGTAGCCCCAGCCCGGGGATCCAG
DNA 2: CTGGATCCCCGGGCTGGGGCTACCTCGAGA
As for B4, the indel frequency stood at 19 % indels.

B5: AAVS1 A33 (mixed)
RNA: GUGAGAAUGGUGCGUCCUAGGUGGUUGUAGCUCCCUUUCUCAUUUCGGAAACGAAAUGAGAACCGUUGCUACAAUAAGGCCGUCUGAAAAGAUGUGCCGCAACGCUCUGCCCCUUAAAGCUUCUGCUUUAAGGGGCAUCGUUUAUUUUUUU
DNA 1: TGAGAATGGTGCGTCCTAGGTGTTCACCAG
DNA 2: CTGGTGAACACCTAGGACGCACCATTCTCA
The molecule B5 displayed an indel frequency of 17.1 % indels.

B6: AAVS1 A3 (mixed)
RNA: GCAGCGCAAAGUGACAAUGGCCGUUGUAGCUCCCUUUCUCAUUUCGGAAACGAAAUGAGAACCGUUGCUACAAUAAGGCCGUCUGAAAAGAUGUGCCGCAACGCUCUGCCCCUUAAAGCUUCUGCUUUAAGGGGCAUCGUUUAUUUUUUU
DNA 1: GCAGCGCAAAGTGACAATGGCCAGGGCC
DNA 2: GGCCCTGGCCATTGTCACTTTGCGCTGC
B6: the indel frequency amounted to 7.81 % indels.

B7: GRIN2B G5 (mixed)
RNA: GUUUACAAUGAGAGACAAUACUGGUUGUAGCUCCCUUUCUCAUUUCGGAAACGAAAUGAGAACCGUUGCUACAAUAAGGCCGUCUGAAAAGAUGUGCCGCAACGCUCUGCCCCUUAAAGCUUCUGCUUUAAGGGGCAUCGUUUAUUUUUUU
DNA 1: TTTACAATGAGAGACAATACTGGCATCCAA
DNA 2: TTGGATGCCAGTATTGTCTCTCATTGTAAA
Molecule B7 came in with an indel frequency of 18.4 % indels.

B8: EMX1 E1 (mixed)
RNA: GAAUGUGGUGCUUGAGAAGUGGAGUUGUAGCUCCCUUUCUCAUUUCGGAAACGAAAUGAGAACCGUUGCUACAAUAAGGCCGUCUGAAAAGAUGUGCCGCAACGCUCUGCCCCUUAAAGCUUCUGCUUUAAGGGGCAUCGUUUAUUUUUUU
DNA 1: AATGTGGTGCTTGAGAAGTGGATGGCCCAA
DNA 2: TTGGGCCATCCACTTCTCAAGCACCACATT
On to B8, for which the indel frequency turned out to be 7.8 % indels.

B9: VEGFA V18 (mixed)
RNA: GAGGGGGGUGCCGAGGACCGAAGGUUGUAGCUCCCUUUCUCAUUUCGGAAACGAAAUGAGAACCGUUGCUACAAUAAGGCCGUCUGAAAAGAUGUGCCGCAACGCUCUGCCCCUUAAAGCUUCUGCUUUAAGGGGCAUCGUUUAUUUUUUU
DNA 1: AGGGGGGTGCCGAGGACCGAAGGGCACCAA
DNA 2: TTGGTGCCCTTCGGTCCTCGGCACCCCCCT
With B9, the indel frequency is 16.7 % indels.

B10: VEGFA V60 (mixed)
RNA: GAAGGGUGAGUCUCAGGCCACAGGUUGUAGCUCCCUUUCUCAUUUCGGAAACGAAAUGAGAACCGUUGCUACAAUAAGGCCGUCUGAAAAGAUGUGCCGCAACGCUCUGCCCCUUAAAGCUUCUGCUUUAAGGGGCAUCGUUUAUUUUUUU
DNA 1: AAGGGTGAGTCTCAGGCCACAGGGACCCAA
DNA 2: TTGGGTCCCTGTGGCCTGAGACTCACCCTT
B10 yielded an indel frequency of 12.1 % indels.

B11: VEGFA V54 (mixed)
RNA: GCUGUCCCCUCCUGAGCCCAUGGGUUGUAGCUCCCUUUCUCAUUUCGGAAACGAAAUGAGAACCGUUGCUACAAUAAGGCCGUCUGAAAAGAUGUGCCGCAACGCUCUGCCCCUUAAAGCUUCUGCUUUAAGGGGCAUCGUUUAUUUUUUU
DNA 1: CTGTCCCCTCCTGAGCCCATGGGCAACCAT
DNA 2: ATGGTTGCCCATGGGCTCAGGAGGGGACAG
As to B11, the indel frequency is 37 % indels.

B12: GRIN2B G1 (mixed)
RNA: GCCCAUCAAGCUGGGCUCCAAGGGUUGUAGCUCCCUUUCUCAUUUCGGAAACGAAAUGAGAACCGUUGCUACAAUAAGGCCGUCUGAAAAGAUGUGCCGCAACGCUCUGCCCCUUAAAGCUUCUGCUUUAAGGGGCAUCGUUUAUUUUUUU
DNA 1: CCCATCAAGCTGGGCTCCAAGGAGGGCCAA
DNA 2: TTGGCCCTCCTTGGAGCCCAGCTTGATGGG
Take B12: the indel frequency is 18.6 % indels.

B13: AAVS1 A41 (mixed)
RNA: GAGGACUGCAUGGGUCAGCACAGGUUGUAGCUCCCUUUCUCAUUUCGGAAACGAAAUGAGAACCGUUGCUACAAUAAGGCCGUCUGAAAAGAUGUGCCGCAACGCUCUGCCCCUUAAAGCUUCUGCUUUAAGGGGCAUCGUUUAUUUUUUU
DNA 1: AGGACTGCATGGGTCAGCACAGGCTGCCAA
DNA 2: TTGGCAGCCTGTGCTGACCCATGCAGTCCT
In the case of B13, the indel frequency is 10.8 % indels.

B14: AAVS1 A2 (mixed)
RNA: GUCAGCAUAGGGUGGCAAAGCCCGUUGUAGCUCCCUUUCUCAUUUCGGAAACGAAAUGAGAACCGUUGCUACAAUAAGGCCGUCUGAAAAGAUGUGCCGCAACGCUCUGCCCCUUAAAGCUUCUGCUUUAAGGGGCAUCGUUUAUUUUUUU
DNA 1: TCAGCATAGGGTGGCAAAGCCCAGGGCC
DNA 2: GGCCCTGGGCTTTGCCACCCTATGCTGA
The molecule B14 showed an indel frequency of 14.1 % indels.

B15: AAVS1 A30 (mixed)
RNA: GAGGGAGGAGAGAUGCCCGGAGAGUUGUAGCUCCCUUUCUCAUUUCGGAAACGAAAUGAGAACCGUUGCUACAAUAAGGCCGUCUGAAAAGAUGUGCCGCAACGCUCUGCCCCUUAAAGCUUCUGCUUUAAGGGGCAUCGUUUAUUUUUUU
DNA 1: AGGGAGGAGAGATGCCCGGAGAGGACCCAG
DNA 2: CTGGGTCCTCTCCGGGCATCTCTCCTCCCT
B15 showed an indel frequency of 12.9 % indels.

B16: AAVS1 A10 (mixed)
RNA: GGGUCUGAGGGUGGAGGGACUGGUUGUAGCUCCCUUUCUCAUUUCGGAAACGAAAUGAGAACCGUUGCUACAAUAAGGCCGUCUGAAAAGAUGUGCCGCAACGCUCUGCCCCUUAAAGCUUCUGCUUUAAGGGGCAUCGUUUAUUUUUUU
DNA 1: GGGTCTGAGGGTGGAGGGACTGGGGGCC
DNA 2: GGCCCCCAGTCCCTCCACCCTCAGACCC
Molecule B16 had an indel frequency of 30.1 % indels.

B17: AAVS1 A7 (mixed)
RNA: GUCUGUCCCCUCCACCCCACAGUGUUGUAGCUCCCUUUCUCAUUUCGGAAACGAAAUGAGAACCGUUGCUACAAUAAGGCCGUCUGAAAAGAUGUGCCGCAACGCUCUGCCCCUUAAAGCUUCUGCUUUAAGGGGCAUCGUUUAUUUUUUU
DNA 1: TCTGTCCCCTCCACCCCACAGTGGGGCC
DNA 2: GGCCCCACTGTGGGGTGGAGGGGACAGA
In the case of B17, the indel frequency was found to be 17.4 % indels.

B18: VEGFA V17 (mixed)
RNA: GCCGGGACCCUCCACUCCUCCUGGUUGUAGCUCCCUUUCUCAUUUCGGAAACGAAAUGAGAACCGUUGCUACAAUAAGGCCGUCUGAAAAGAUGUGCCGCAACGCUCUGCCCCUUAAAGCUUCUGCUUUAAGGGGCAUCGUUUAUUUUUUU
DNA 1: CCGGGACCCTCCACTCCTCCTGGGCCCCAA
DNA 2: TTGGGGCCCAGGAGGAGTGGAGGGTCCCGG
In the case of B18, the indel frequency was determined as 11.6 % indels.

B19: AAVS1 A46 (mixed)
RNA: GAAGCCUGAGCGCCUCUCCUGGGGUUGUAGCUCCCUUUCUCAUUUCGGAAACGAAAUGAGAACCGUUGCUACAAUAAGGCCGUCUGAAAAGAUGUGCCGCAACGCUCUGCCCCUUAAAGCUUCUGCUUUAAGGGGCAUCGUUUAUUUUUUU
DNA 1: AAGCCTGAGCGCCTCTCCTGGGCTTGCCAA
DNA 2: TTGGCAAGCCCAGGAGAGGCGCTCAGGCTT
Molecule B19 displayed an indel frequency of 14.9 % indels.
